Measured values reported in article PMC10247859, “Replisome-cohesin interactions provided by the Tof1-Csm3 and Mrc1 cohesion establishment factors” (Chromosoma, 2023).

Key:
Details in all cases: both partners purified
Scc3 = biological target: T1, Scc3 (S. cerevisiae (budding yeast), UniProt P40541 1-1150); test: cross-linking; CLMS with sulfo-SDA; cohesin, Tof1-Csm3 and Chl1 with or without Mrc1 at 300-350 nM, 30 °C 5 min, cross-linker 2 h at 4 °C, UV 365 nm; LC-MS/MS, 1% FDR at residue-pair level; two samples merged
T1 construct: Scc3, budding yeast; the Scc3 chain of m1; Stood in the cross-linking sample as a chain of cohesin; source: purified as part of cohesin, as previously described (Minamino et al. 2018)
T1 sequence (looked up): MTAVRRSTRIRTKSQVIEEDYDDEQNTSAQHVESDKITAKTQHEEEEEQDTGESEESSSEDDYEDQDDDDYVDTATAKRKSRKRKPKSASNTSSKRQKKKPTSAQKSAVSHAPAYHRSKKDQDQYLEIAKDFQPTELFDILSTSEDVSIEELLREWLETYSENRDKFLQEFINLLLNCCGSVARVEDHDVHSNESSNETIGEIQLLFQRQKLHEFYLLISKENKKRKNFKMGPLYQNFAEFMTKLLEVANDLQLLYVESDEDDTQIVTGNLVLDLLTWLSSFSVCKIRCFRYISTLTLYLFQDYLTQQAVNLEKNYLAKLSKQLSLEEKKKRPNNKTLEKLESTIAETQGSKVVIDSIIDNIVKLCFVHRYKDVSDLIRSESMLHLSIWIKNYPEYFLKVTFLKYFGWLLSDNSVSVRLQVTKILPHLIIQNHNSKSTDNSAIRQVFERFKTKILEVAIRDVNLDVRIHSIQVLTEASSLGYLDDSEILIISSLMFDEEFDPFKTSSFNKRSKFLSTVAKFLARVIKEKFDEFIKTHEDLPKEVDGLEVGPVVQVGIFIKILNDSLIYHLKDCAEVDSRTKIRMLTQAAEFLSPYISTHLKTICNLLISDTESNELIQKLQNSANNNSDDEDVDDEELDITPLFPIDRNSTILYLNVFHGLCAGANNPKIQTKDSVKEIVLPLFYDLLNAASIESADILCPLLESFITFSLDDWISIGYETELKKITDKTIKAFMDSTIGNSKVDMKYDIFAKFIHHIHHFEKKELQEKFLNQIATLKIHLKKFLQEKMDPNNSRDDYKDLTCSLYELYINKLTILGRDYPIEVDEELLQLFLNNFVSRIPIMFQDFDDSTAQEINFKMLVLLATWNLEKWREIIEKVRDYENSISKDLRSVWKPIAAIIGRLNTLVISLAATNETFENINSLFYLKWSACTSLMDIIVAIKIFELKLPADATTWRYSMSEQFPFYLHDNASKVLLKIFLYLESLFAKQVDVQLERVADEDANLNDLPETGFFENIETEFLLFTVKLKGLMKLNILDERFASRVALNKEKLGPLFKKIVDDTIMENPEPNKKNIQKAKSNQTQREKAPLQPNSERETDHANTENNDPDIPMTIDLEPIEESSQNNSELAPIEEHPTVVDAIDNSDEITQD

Tof1-Csm3 complex = biological target: T2, Tof1-Csm3 complex (S. cerevisiae (budding yeast), UniProt P53840 1-1238; Q04659 1-317); test: pull-down; Flag-tagged Mrc1 (200-600 nM) held on anti-Flag M2 magnetic beads; with or without a first incubation with Tof1-Csm3, then cohesin (tetramer, trimer or Smc1-Smc3 dimer) or GINS; interaction buffer with 100 mM potassium glutamate; elution with 3x Flag peptide or SDS sample buffer; Coomassie staining; benzonase or NaCl added where indicated
T2 construct: Tof1, budding yeast; Csm3, budding yeast; Held on calmodulin dynabeads when used as bait; source: purified as previously described (Yeeles et al. 2017)
T2 sequence (P53840 whole entry, chain 1 of 2): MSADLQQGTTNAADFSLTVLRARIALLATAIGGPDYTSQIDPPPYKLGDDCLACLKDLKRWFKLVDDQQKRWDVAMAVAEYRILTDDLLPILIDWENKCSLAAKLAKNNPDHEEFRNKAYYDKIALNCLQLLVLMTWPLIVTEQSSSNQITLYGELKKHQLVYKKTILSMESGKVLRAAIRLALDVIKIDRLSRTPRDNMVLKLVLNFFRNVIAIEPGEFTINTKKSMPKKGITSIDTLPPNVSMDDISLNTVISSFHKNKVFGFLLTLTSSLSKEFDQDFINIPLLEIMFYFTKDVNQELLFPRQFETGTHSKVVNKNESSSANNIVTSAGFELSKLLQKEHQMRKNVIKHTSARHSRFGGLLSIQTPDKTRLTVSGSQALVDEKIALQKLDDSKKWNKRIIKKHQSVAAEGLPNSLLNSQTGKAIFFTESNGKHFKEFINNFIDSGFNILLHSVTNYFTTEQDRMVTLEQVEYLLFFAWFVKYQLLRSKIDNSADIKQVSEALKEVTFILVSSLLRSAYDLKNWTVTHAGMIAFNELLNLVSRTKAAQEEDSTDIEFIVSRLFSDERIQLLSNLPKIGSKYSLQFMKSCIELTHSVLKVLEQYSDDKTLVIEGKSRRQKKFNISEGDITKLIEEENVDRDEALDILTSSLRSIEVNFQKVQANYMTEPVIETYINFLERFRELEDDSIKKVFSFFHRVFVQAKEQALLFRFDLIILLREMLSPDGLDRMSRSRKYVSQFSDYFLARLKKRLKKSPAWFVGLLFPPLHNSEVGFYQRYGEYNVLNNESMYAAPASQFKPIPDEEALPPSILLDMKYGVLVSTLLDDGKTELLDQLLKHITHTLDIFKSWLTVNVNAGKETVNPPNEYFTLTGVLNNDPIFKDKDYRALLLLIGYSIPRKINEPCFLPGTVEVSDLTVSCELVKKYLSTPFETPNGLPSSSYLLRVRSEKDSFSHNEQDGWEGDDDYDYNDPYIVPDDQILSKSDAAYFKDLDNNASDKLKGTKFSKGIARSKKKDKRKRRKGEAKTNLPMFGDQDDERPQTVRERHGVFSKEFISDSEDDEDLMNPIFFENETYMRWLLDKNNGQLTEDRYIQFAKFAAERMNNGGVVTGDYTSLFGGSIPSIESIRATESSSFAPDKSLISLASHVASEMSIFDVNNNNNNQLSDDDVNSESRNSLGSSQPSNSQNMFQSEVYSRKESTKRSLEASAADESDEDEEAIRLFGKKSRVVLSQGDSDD
T2 sequence (Q04659 whole entry, chain 2 of 2): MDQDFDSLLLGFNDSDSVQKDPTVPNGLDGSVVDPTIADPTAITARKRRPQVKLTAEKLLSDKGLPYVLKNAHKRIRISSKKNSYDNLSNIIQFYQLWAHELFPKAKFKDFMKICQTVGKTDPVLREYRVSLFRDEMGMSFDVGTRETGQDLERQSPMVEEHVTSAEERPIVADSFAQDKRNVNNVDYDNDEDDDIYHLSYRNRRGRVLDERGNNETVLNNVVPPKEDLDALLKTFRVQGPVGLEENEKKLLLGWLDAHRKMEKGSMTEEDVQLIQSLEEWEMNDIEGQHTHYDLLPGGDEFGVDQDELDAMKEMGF

[1] = biological target: T3, cohesin trimer (Smc1-Smc3-Scc1) (S. cerevisiae (budding yeast), UniProt P32908 1-1225; P47037 1-1230; Q12158 1-566); test: as above
T3 construct: Smc1, cohesin subunit, budding yeast; Smc3, cohesin subunit, budding yeast; Scc1, cohesin subunit, budding yeast; source: purified following the same protocol as cohesin tetramers (IgG agarose, 3C protease cleavage); copies: + +
T3 sequence (P32908 whole entry, chain 1 of 3): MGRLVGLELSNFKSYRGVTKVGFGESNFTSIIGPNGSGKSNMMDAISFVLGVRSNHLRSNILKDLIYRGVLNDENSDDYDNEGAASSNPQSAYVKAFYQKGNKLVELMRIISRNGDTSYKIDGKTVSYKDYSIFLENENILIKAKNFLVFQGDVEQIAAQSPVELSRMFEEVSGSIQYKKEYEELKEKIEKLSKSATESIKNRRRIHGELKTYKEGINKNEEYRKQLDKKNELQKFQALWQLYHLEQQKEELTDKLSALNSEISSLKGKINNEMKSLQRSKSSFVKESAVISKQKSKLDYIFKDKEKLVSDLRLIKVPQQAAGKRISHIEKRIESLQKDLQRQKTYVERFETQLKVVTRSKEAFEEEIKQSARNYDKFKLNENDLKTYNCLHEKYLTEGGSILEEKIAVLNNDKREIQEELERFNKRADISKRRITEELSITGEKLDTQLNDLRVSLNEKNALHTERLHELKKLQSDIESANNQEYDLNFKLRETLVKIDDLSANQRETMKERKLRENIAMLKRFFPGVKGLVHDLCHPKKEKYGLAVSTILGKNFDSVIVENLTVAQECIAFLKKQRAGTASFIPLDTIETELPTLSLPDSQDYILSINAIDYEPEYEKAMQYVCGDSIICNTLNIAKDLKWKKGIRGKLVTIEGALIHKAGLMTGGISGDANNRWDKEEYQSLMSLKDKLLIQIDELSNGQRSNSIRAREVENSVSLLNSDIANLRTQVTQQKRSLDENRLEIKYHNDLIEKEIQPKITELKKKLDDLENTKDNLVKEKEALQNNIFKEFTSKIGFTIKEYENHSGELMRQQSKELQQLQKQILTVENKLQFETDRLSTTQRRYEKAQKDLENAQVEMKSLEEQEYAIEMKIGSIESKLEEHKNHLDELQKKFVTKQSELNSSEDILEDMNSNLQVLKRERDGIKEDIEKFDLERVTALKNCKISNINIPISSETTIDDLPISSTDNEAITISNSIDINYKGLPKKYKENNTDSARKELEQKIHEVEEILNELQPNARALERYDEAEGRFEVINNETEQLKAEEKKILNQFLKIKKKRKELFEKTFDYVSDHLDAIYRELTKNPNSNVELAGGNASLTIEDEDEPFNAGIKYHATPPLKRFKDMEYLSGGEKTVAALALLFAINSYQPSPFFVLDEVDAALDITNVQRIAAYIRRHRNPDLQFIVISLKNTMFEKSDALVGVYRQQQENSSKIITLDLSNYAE
T3 sequence (P47037 whole entry, chain 2 of 3): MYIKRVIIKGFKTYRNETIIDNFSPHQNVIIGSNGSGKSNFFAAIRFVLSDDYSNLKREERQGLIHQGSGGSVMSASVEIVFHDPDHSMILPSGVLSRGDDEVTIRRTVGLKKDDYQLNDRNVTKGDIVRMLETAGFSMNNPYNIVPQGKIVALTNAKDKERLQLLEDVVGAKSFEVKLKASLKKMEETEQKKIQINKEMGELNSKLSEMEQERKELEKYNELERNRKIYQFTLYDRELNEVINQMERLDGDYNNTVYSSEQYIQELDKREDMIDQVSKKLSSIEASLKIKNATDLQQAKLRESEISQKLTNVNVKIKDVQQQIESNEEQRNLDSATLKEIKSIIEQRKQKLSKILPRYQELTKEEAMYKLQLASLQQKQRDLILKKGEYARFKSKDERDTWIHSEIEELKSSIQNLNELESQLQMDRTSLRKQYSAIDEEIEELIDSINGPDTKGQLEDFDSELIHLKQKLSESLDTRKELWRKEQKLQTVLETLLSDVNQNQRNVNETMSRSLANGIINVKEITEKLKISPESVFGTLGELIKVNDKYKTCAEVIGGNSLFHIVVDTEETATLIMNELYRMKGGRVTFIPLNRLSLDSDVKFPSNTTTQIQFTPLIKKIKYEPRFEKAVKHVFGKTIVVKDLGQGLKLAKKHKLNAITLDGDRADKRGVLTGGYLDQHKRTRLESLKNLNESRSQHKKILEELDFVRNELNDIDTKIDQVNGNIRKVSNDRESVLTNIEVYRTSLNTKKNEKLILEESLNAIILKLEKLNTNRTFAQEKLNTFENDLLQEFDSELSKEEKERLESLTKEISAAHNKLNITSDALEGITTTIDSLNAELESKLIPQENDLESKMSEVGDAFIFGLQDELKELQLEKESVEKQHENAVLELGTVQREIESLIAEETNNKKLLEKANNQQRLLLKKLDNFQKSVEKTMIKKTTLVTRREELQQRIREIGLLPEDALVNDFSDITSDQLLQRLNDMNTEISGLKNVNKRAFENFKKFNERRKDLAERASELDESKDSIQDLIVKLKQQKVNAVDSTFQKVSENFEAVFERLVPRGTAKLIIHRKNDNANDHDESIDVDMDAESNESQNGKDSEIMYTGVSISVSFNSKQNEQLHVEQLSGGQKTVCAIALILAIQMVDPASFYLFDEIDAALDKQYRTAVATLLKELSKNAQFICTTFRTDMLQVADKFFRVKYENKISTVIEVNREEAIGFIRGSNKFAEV
T3 sequence (Q12158 whole entry, chain 3 of 3): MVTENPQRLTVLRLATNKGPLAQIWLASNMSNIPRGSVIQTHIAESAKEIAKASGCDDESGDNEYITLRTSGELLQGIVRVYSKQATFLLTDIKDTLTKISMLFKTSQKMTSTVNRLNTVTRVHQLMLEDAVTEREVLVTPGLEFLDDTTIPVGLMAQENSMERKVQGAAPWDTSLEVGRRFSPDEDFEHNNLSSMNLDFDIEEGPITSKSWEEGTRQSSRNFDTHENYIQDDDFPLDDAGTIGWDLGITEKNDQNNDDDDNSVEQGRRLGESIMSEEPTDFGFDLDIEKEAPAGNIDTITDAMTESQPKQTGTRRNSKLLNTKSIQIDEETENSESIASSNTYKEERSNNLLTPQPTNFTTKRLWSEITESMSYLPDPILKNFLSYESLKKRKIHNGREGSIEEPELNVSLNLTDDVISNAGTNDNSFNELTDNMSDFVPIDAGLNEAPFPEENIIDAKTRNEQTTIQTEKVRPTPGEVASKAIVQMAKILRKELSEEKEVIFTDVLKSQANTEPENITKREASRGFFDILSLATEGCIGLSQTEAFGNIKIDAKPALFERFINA

Smc1-Smc3 dimer = biological target: T4, Smc1-Smc3 dimer (S. cerevisiae (budding yeast), UniProt P32908 1-1225; P47037 1-1230); test: as above
T4 construct: Smc1, cohesin subunit, budding yeast; Smc3, cohesin subunit, budding yeast; also called SMC dimer; SMC dimers (Smc1-Smc3); source: purified following the same protocol as cohesin tetramers (IgG agarose, 3C protease cleavage); not shown: Protein A, C-terminal, cleaved
T4 sequence (P32908 whole entry, chain 1 of 2): as the sequence (P32908 whole entry, chain 1 of 3) above
T4 sequence (P47037 whole entry, chain 2 of 2): as the sequence (P47037 whole entry, chain 2 of 3) above

Measured: binding result

B1: Mrc1 (natural protein, S. cerevisiae (budding yeast), UniProt P25588 1-1096, looked up)
chain: MDDALHALSSLTAKKRTTTYKKVAVPILDENDNTNGNGPNDIDNPPELTGNGFLFANATLNRVKNRLEGKKAPEQNHNNGKDRSENSLPTQLISNLYDGGEELEKSEVKDNSYSEKNVSSSFTQTQRIPVSIQQDKVFNVPIHSVNDGKPTQLIKEDGLVNETSQALKTPLTTGRPGATQRIDSSGATSQTQPIKSIEPQSQIITTSSNHSNALSPKIPIIPTELIGTSPLFQSIQNRGPDTQMDVPPQTAHDEDKTQAIGIPQATHQEQKTQIDTVAQTLQDEVPHTLKIREIQSELASEDSKREKARNVEYKKPQKPIPTKKFFSKESFLADFDDSSSNEDDDIKLENAHPKPVQNDDELHENKSVELNLTDETRINEKRVPLLSSYANNLKREIDSSKCITLDLDSDSDEYGDDDMDSIKLSKDESVLPISQLSKATILNLKARLSKQNQKLSQRPNKSKDPKVDHNVLLNTLRKASRKQILDHQKEVIETKGLKLEDMAKEKEIVENLLEQEILRNKRIRQKEKRREKLEENDFQLNAHDSGSDSGSESSGFALSGNEIADYESSGSENDNRRESDSEKEDDEIILKQKKSHHVKHIINESDSDTEVEAKPKEKADESLPKRIAINLGHYGDNIGEDTDKFQETNVLDTQNIEEVMAERNTIENEVKDDVYVNEEADEAIRRQLIDKEKLQLKQKEKEHEAKIKELKKRGVTNFFEMEAEESEDEWHGIGGADGEGSDDYDSDLEKMIDDYSKNNFNPHEIREMLAAENKEMDIKMINKILYDIKNGGFRNKRAKNSLELELSDDDEDDVLQQYRLKRRELMRKRRLEIGDDAKLVKNPKSSAFFESMVEDIIEYKNPFGAEEEYNLDITSTATDLDTQDNSINVGDNTGNNEQKPVDQKNKKVIISEDFVQKSLSFLKSNNYEDFETDKELSRIQHGNDEAIEDLYTLKQNSSIKSFTNSQTDSTTSKTVNTIIDLEKRPEDEDEVENGDTSLVGVFKHPSIIKSFASRTDINDKFKEGNKTVKILKSYKTVGSSKASITYMGKTRKLIAPKRKTEGSHRYHHDHHNKKMKMKTKTKSNKLFESGQDSFDN
notes: Mrc1, budding yeast; also called Flag-tagged Mrc1; source: purified as previously described (Yeeles et al. 2017)
binds: all assays above
